# Results reported in paper PMC9222203, “A Robust Assay to Monitor Ataxin-3 Amyloid Fibril Assembly” (Cells, 2022).
# Key:
# [1] = molecular target: the molecule itself
# [2] = molecular target: the molecule itself; assay: switchSENSE; His-tagged protein (500 nM) captured on NTA3-functionalised DNA nanolevers; the same protein as analyte at 3.75-15 uM; PBS pH 7.5, 1 mM TCEP, 37 C; static measurement mode; global mono-exponential fits; self-association
protein,measurement,setting,value
"Ataxin-3 Josephin domain (domain or fragment, human, UniProt P54252-2 1-180, looked up, Josephin domain of human ataxin-3 (UniProt P54252-2); A TEV site lies downstream of the His tag; no cleavage described; captured by its His tag in switchSENSE; also called Atx3 JD; JD; source: E. coli BL21(DE3)-SI, purified (Ni2+ IMAC, Sephacryl S-300 SEC); not shown: His6, N-terminal, kept) MESIFHEKQEGSLCAQHCLNNLLQGEYFSPVELSSIAHQLDEEERMRMAEGGVTSEDYRTFLQQPSGNMDDSGFFSIQVISNALKVWGLELILFNSPEYQRLRIDPINERSFICNYKEHWFTVRKLGKQWFNLNSLLTGPELISDTYLALFLAQLQQEGYSIFVVKGDLPDCEADQLLQM",Kd,[1],4.6 µM
same,binding result,[2],binds
